Bound cpm and IC50 data for ten molecules are collected here from patent US20030176334A1 (Scripps Research, published 2003).

Square brackets hold non-standard residues; d marks the D form.

The target in experiment [1] is integrin αIIbβ3, purified and immobilized (UniProt P08514). Description: solid phase receptor binding assay, iodinated MMP-2 on immobilized αIIbβ3.
Experiment [2] deals with integrin αvβ3 (vitronectin receptor), purified and immobilized (UniProt P06756). Description: solid phase receptor binding assay, iodinated MMP-2 on immobilized αvβ3.
For experiment [3], the target named is T1, integrin αvβ3 (vitronectin receptor), purified and immobilized (UniProt P06756 31-1048; P05106 27-788).
T1 construct: Purified integrin coated at 50 ng per well; also called αvβ3 receptor
Kind of experiment: competition, vitronectin (VN) binding to immobilized αvβ3; individual assay.
Description: (§1) Briefly, selected purified integrins were separately immobilized in Titertek microtiter wells at a coating concentration of 50 nanograms (ng) per well. […] After incubation for 18 hours at 4C, nonspecific binding sites on the plate were blocked with 10 milligrams/milliliter (mg/ml) of bovine serum albumin (BSA) in Tris-buffered saline. […] Radiolabeled ligands were used at concentrations of 1 nM and binding was challenged separately with unlabeled synthetic peptides.
(§2) Following a three hour incubation, free ligand was removed by washing and bound ligand was detected by gamma counting.

For experiment [4], the target named is T2, integrin αIIbβ3, purified and immobilized (UniProt P08514 32-1039; P05106 27-788).
T2 construct: Purified integrin coated at 50 ng per well; also called α11bβ3
Description: competition, vitronectin (VN) binding to immobilized αIIbβ3; individual assay.
Description: as §1, §2

For experiment [5], the target named is T2, integrin αIIbβ3, purified and …. Kind of experiment: competition, fibrinogen (FG) binding to immobilized αIIbβ3; individual assay.
Description: as §1, §2
In experiment [6] the target is T1, integrin αvβ3 (vitronectin receptor), …. Kind of experiment: competition, fibrinogen (FG) binding to immobilized αvβ3; individual assay.
Description: as §1, §2
The target of experiment [7] is T2, integrin αIIbβ3, purified and …. Kind of experiment: competition, 125I-fibrinogen (1 nM) binding to immobilized purified αIIbβ3, gamma counting; mean of duplicates ± SD.
Description: as §1, §2
Experiment [8] has as its target T1, integrin αvβ3 (vitronectin receptor), …. Kind of experiment: competition, 125I-fibrinogen (1 nM) binding to immobilized purified αvβ3, gamma counting; mean of duplicates ± SD.
Description: as §1, §2

T1 sequence (P06756 31-1048, form in doubt, chain 1 of 2): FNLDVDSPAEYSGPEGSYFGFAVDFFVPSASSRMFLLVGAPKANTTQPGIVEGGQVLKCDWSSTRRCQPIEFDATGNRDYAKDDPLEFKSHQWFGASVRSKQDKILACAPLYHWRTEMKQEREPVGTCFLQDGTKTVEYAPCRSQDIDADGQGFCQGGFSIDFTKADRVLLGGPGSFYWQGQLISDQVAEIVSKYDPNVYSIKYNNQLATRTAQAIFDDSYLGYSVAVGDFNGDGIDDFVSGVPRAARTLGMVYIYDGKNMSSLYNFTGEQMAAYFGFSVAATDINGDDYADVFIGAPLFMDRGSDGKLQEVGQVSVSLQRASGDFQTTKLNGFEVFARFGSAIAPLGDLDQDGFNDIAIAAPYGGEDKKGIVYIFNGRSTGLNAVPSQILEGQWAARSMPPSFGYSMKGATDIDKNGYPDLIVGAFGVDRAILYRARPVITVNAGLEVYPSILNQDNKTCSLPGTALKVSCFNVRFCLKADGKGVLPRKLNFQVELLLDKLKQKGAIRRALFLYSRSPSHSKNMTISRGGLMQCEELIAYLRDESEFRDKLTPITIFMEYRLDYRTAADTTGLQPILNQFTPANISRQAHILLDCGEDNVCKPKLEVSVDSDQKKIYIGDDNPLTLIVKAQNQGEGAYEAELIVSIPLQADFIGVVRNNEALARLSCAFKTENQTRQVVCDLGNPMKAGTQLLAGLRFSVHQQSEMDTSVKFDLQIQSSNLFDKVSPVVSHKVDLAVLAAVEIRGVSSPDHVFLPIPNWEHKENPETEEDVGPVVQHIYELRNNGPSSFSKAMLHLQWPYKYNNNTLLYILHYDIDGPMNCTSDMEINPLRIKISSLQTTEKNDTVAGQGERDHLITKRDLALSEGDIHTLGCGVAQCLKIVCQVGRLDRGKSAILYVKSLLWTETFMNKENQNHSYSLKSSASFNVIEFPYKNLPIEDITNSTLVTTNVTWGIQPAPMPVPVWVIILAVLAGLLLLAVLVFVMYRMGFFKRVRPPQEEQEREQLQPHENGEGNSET
T1 sequence (P05106 27-788, form in doubt, chain 2 of 2): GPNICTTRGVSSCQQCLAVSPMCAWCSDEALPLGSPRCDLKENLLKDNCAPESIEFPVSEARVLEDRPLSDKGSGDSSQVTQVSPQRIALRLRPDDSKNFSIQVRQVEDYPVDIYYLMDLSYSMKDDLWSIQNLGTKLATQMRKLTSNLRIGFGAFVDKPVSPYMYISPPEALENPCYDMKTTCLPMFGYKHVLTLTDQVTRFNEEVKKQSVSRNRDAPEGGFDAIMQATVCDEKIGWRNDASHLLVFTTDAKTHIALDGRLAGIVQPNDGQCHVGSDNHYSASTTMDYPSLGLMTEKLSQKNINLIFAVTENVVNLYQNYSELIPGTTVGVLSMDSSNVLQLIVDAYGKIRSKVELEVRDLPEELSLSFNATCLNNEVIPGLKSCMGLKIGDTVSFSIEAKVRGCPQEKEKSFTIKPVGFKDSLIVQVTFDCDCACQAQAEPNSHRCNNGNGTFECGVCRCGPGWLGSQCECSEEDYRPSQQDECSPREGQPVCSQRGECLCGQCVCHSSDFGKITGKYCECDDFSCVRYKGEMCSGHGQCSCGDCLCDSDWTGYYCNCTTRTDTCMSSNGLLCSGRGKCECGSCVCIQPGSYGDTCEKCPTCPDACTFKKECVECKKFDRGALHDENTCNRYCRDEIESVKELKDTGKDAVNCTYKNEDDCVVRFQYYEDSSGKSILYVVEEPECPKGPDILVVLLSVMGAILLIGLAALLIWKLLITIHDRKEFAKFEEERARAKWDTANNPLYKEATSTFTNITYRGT
integrin αvβ3 (vitronectin receptor), purified and immobilized (UniProt P06756), sequence (P06756 31-1048, form in doubt, chain 1 of 2): as the sequence (P06756 31-1048, form in doubt, chain 1 of 2) above
integrin αvβ3 (vitronectin receptor), purified and immobilized (UniProt P06756), sequence (P05106 27-788, form in doubt, chain 2 of 2, further chain): as the sequence (P05106 27-788, form in doubt, chain 2 of 2) above

As to “MMP-2 (matrix metalloproteinase-2) as used in the solid phase receptor binding assays (enzyme)”, the results for the bound cpm in experiment [1] and in experiment [2] were 10 CPM and 300 cpm, respectively.

B1: peptide 62880, YTAECKPQVTRGDVF (peptide)
peptide: YTAECKPQVTRGDVF
notes: Linear synthetic peptide; also called VN-derived amino acid residues 35-49
As for B1, the IC50 (as a rule, the point on the concentration scale where inhibition reaches its midpoint) is 0.5 µM in experiment [3], 0.98 µM in experiment [4], 4.2 µM in experiment [5] and < 0.1 µM in experiment [6].

B2: peptide 62503, GVVRNNEALARLS (peptide)
peptide: GVVRNNEALARLS
notes: Linear synthetic peptide; also called αv-derived amino acid residues 655-667
For B2, the half-inhibitory concentration (IC50) in experiment [3], in experiment [4] and in experiment [6] was > 100 µM each time.

Turning to cyclo(GRGD[dF]L) (also: TFA salt, TFA salt) [peptide 62179, cyclo(GRGDfL)], the IC50 in experiment [7] came to 0.055 µM; in experiment [8], 0.395 µM.

Regarding cyclo(ARGD[dF]L) (also: TFA salt, TFA salt) [peptide 62175, cyclo(ARGDfL)], the IC50 came out at 0.63 µM in experiment [7] and 1.05 µM in experiment [8].

B3: peptide 62181, cyclo(GrGDFV) (peptide)
peptide: cyclo(G[dR]GDFV)
modifications: also: TFA salt
notes: TFA salt; also called cyclo(-Gly-D-Arg-Gly-Asp-Phe-Val); c-(GrGDFV)
On to B3, for which the IC50 in experiment [7] is 15 µM; in experiment [8], 1.96 µM.

B4: peptide 62185, cyclo(RADfV) (peptide)
peptide: cyclo(RAD[dF]V)
modifications: also: TFA salt
notes: also called cyclo(Arg-Ala-Asp-D-Phe-Val)
With B4, the IC50 in experiment [7] was determined as 100 µM; in experiment [8] it was 0.885 µM.

B5: peptide 62186, cyclo(RaDFV) (peptide)
peptide: cyclo(R[dA]DFV)
modifications: also: TFA salt
notes: TFA salt; also called cyclo(Arg-D-Ala-Asp-Phe-Val)
For the molecule B5, the IC50 is 100 µM in experiment [7] and 57.5 µM in experiment [8].

B6: peptide 62502, TDVNGDGRHDL (peptide)
peptide: TDVNGDGRHDL
notes: Linear synthetic peptide; also called αIIb-derived amino acid residues 296-306
For B6, the IC50 is > 100 µM in experiment [3], 5 µM in experiment [4], 90 µM in experiment [5] and > 100 µM in experiment [6].

B7: peptide 62411, TRQVVCDLGNPM (peptide)
peptide: TRQVVCDLGNPM
notes: Linear synthetic peptide; also called αv-derived amino acid residues 676-687
For the molecule B7, the IC50 in experiment [3], in experiment [4] and in experiment [6] was > 100 µM each time.
